Laboratory results as given in paper PMC10720262 (2023).

These binders were tested against PfCSP full length (Plasmodium falciparum (isolate NF54), UniProt P19597) (assay: ELISA AUC).
PfCSP full length, sequence (P19597 20-375): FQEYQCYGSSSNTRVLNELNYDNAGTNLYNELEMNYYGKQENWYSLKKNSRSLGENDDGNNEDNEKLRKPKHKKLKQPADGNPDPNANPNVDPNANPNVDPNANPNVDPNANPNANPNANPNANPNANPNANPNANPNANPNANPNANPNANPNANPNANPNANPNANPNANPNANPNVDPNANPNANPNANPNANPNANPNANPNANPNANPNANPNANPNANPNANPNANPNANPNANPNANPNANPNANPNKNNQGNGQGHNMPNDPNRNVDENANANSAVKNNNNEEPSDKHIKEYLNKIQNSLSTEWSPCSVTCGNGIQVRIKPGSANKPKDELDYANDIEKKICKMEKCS

Binder	binding score
CL-511771 (antibody, V domains shown, peptides N-terminally acetylated and C-terminally amidated) VH: QVQLVESGGGVVQPGRSLRLSCAASGFTFSNSGMHWVRQAPGKGLEWVAIIWYDGSNKYYAESMKGRFTISRDNSKNTLYLQMNSLRAEDTAVYYCARDGTTNAFDLWGQGTMVTVSP VL: not shown	2.64
CL-444639 (antibody, V domains shown, peptides N-terminally acetylated and C-terminally amidated) VH: QVQLVESGGGVVQPARSLRLSCAASGFTFSSYGMHWVRQAPGKGLEWVAVIWYDGSNKYYADSVKGRFTISRDNSKNTLYLQMNSLRAEDTAVYYCAKVGDFYGSGSYPHYYGMDVWGQGTTVTVSS VL: not shown	2.4
CL-444906 (antibody, V domains shown, peptides N-terminally acetylated and C-terminally amidated) VH: QVQLVESGGGVVQPGRSLRLSCTASGFTFSTYGMHWVRQAPGKGLEWVAIIWYDGSNKFYADSVKGRFTISRDNSKDTLYLQMNSLRAEDTAIYYCARAWDKVDDKYGMDVWGQGTTVTVSS VL: not shown	2.6
CL-440422 (antibody, V domains shown, peptides N-terminally acetylated and C-terminally amidated) VH: QVQLVESGGGVVQPGRSLRLSCAASGFTFSNFGMHWVRQTPDRGLEWVAIIWFDGSNTFYTDSVKGRFTISRDNYMNTLYLQMNSLRAEDTAVYYCARSFYSDSAGSLFDYWGQGTLVTVSS VL: DIQMTQSPSTLSASVGDRVTITCRASQNINNWVAWYQQKPGKAPKLLIYKASDLETGVPSRFSGSGSGTEFTLTISGLQPDDFATFYCLQNNHYWTFGQGTKVEIK	2.5
CL-512296 (antibody, V domains shown, peptides N-terminally acetylated and C-terminally amidated) VH: QVQLVESGGGVVQPGRSLRLSCAASGFTFSNYGMHWVRQAPGKGLEWVAVIWYDGSKKFYADSVMGRFTISRDNSKNTLVLQMNSLGAEDTAVYYCARDRGYSGYVFDYWGQGTLVTVSS VL: QSALTQPASVSGSPGQSIAISCTGTSSDVGGYNFVSWYRHHPGKAPKLMIYDVSNRPSGVSNRFSGSKSGNTASLTISGLQAEDEADYYCCSYAGSCSVFGGGTKLTVL	1.86
CL-445635 (antibody, V domains shown, peptides N-terminally acetylated and C-terminally amidated) VH: QVQLVESGGAVVQPGTSLRLSCAASGFTFSNYGMHWVRQAPGKGLQWVALIWYNGNNKFYAESVEGRFIISRDNSKNILFLQMNSLSAEDTAVYYCARAFYYDSGNYLDYWGPGSLVTVSS VL: DIQMTQSPSSVSASVGDRVTITCRARQDISSRLAWYQQKPGKAPKILIYGASSLQSGVPSRFSASGSGTDFTLTISSLQPEDFATYYCQQANSFPWTFGQGTKVEIK	2.4
CL-509940 (antibody, V domains shown, peptides N-terminally acetylated and C-terminally amidated) VH: QVQLVESGGGVVQPGRSLRLSCAASGFTFSTYGMHWVRQAPGKGLEWVAVIWYDGSIKFYADSVKGRFTISRDDSKNTLYLQMNSLRAEDTAVYYCARDGGYSDSGRFGWFDPWGQGNLVTVSS VL: EIVMTQSPVTLSVSPGERVTLSCRASQSVSSNLAWYQQKPGQAPRLLIYGASNRATGIPDRFSGSGSGTEFSLTVTSLQSEDFAVYYCQQYNQWRTFGQGTKVEIR	2.09
CL-515284 (antibody, V domains shown, peptides N-terminally acetylated and C-terminally amidated) VH: QVQLVGSGGGVVQSGRSLRLSCAASGFTFSNFGMHWVRQTPDKGLEWLAIIWYDGSHKFYVDSVKGRFTISRDNSMNTLFLQMNSLRAEDTGVYYCVRSWNYADSKYGMDVWGQGTTVTVSS VL: DIQMTQSPSTLSASVGDRVTITCRASQSISSWLAWYQQKPGKAPNLLIYKASSLESGVPSRFSGSGSGTEFTLTISSLQPDDFATYYCQQYYNYWTFGQGTKVEIK	2.19
CL-510416 (antibody, V domains shown, peptides N-terminally acetylated and C-terminally amidated) VH: QVQLVESGGGVVQPGRSLRLSCEASGFTFSNYGMHWVRQGPGKGLEWVALMWYDGSNKYYSDSVKGRFTISRDNSKSTLYLQMNSLRAEDTAVYYCARPITGNTHSKYTMDVWGQGTTVTVSS VL: DIQMTQSPSTLSASVGDRVTITCRASQSISSWLAWYQQKPGKAPKLLIYKASTLESGVPSRFSGSGSGTEFTLTISSLQPDDFATYFCQQYNSYWTFGQGTKVEIK	2.57
Ky15.10 (antibody, V domains shown, peptides N-terminally acetylated and C-terminally amidated) VH: QVQLVESGGGVVQPGRSLRLSCAASGFTFSNSGMHWVRQVPGKGLEWVAIIWYDGSNKYYADSVKGRFSVSRDNSENTLYLQMSNLRAEDTAVYYCVRAYFDSENLYDYYGMDVWGQGTTVTVSS VL: DIQMTQSPSTLSASVGDRVTITCRASQSISRWLAWFQKKPGKAPKLLIYTASNLESGVPSRFSGSGSGTEFTLTISSLQPDDFATYYCQQYYNYWTFGQGTKVEVK	2.17
CL-513701 (antibody, V domains shown, peptides N-terminally acetylated and C-terminally amidated) VH: QVQLVESGGGVVQTGRSLRLSCTASGFIFSNYGMYWVRQAPGKGLEWVALIWYDGSNKYYVDSVKGRFTISRDNSKNTLYLQMNSLRAEDTAVYYCARAGKYSGSGSYLDSWGQGTLVTVSS VL: DIQMTQSPSSVSASVGDRVTITCRASQGISSWLAWYQQKPGKAPKLLIYTASSLQSGVPSRFSGSGSGTDFTLTISSLQPDDFATYFCQQYSRYWTFGQGTKVEIK	2.54
CL-531969 (antibody, V domains shown, peptides N-terminally acetylated and C-terminally amidated) VH: QVQLVESGGGVVQPGRSLRLSCAASGFTFSSSGMHWVRQAPGMGLEWVAIIWYDGSNKFYADSVKGRFTISRDNSKNTLYLQMNSLRAEDTAVYYCARAYVSGNYGDNYGMDVWGQGTTVTVSS VL: DIQMTQSPSTLSASVGDRVTITCRASQSISSWLAWFQQKPGKAPKLLIYKASSLESGVPSRFSGSGSGTEFTLTINSLQPDDFATYFCQQYNYYWTFGQGTKVEIK	2.5
CL-512870 (antibody, V domains shown, peptides N-terminally acetylated and C-terminally amidated) VH: QVQLVESGGGVVQPGRSLRLSCEASGFTFSHYGMHWVRQAPGRGLEWVAIIWYDGSNTYYRDSVKGRFTISRDNSKDTLFLQMNSLRPDDTAVYYCARALYYDSGSLFDFWGQGTLVTVSS VL: DIQMTQSPSTLSASVGDRVTITCRASQSISSWLAWYQQKPGKAPKLLIYKASSLETGVPSRFSGSGFGTEFTLSISSLQPDDFATYYCLQYNIYWTFGQGTKVEIK	2.23
CL-444424 (antibody, V domains shown, peptides N-terminally acetylated and C-terminally amidated) VH: QVQLVESGGGVVQPGRSLRLSCTASGFTFSNYGMHWIRQAPGKGLEWVAIIWFDGSSQYYADSVKGRFTISRDNSKNTLYLQMNSLRAEDTAVYYCVRALYDSGSLFDFWGLGTLVTVSS VL: DIQMTQSPSTLSASVGDRVTITCRASQNISSLLAWYQQKPGKAPKLLIYKASSLESGVPSRFSGNGSGTEFTLTVSSLQPDDFATYSCLQYNNYWTFGQGTKVEIK	2.3
CL-445827 (antibody, V domains shown, peptides N-terminally acetylated and C-terminally amidated) VH: QVQLVASGGGVVQPGRSLRLSCVASGFTFSFFGMHWVRQTPGRGLEWVAIIWYDGGHKFYADSVKGRFTISRDNSKDTLYLQMNSLRAEDTAVYYCARAEDNMARGNIDYSKYGMDVWGQGTTVTVSS VL: DIQMTQSPSTLSVSIGDRVTITCRASQSISTWLAWYQQKPGKAPKLLIYKASNLESGVPSRFSGSGSGTDFTLTISGLQPDDFATYYCQQYFSYWTFGQGTKVEIK	2.5
CL-513274 (antibody, V domains shown, peptides N-terminally acetylated and C-terminally amidated) VH: QVQLVESGGGVVQPGRSLRVSCAASGFTFSNYGMYWVRQAPGKGLEWVALIWHDGSNKFYEDSVKGRFTISRDNSKNTLYLQMNSLRAEDTAVYYCARAGYFQGSGSFLDYWGQGTLVTVSS VL: DIQMTQSPSTLSASVGDRVTITCRASQSISTWLAWYQQKPGKAPKLLIYKASSLESGVPSRFSGSGSGTEFTLTISSLQPDDFATYFCQQYSSYWTFGQGTKVEIK	2.23
CL-514146 (antibody, V domains shown, peptides N-terminally acetylated and C-terminally amidated) VH: QVQLVESGGGVVQPGRSLRLSCAVSGFTFSNSGMHWVRQAPGKGLEWVAIIWYDGNNKFYADSVKGRFTISRDNSKNTLYLQMNSLRAEDTSIYYCARAYPSGNYGDKYGMDVWGQGTTVTVSS VL: DIQMTQSPSTLSASVGDRVTITCRASQSISSWLAWFQQKPGNAPKLLIYKASSLESGVPSRFSGSGSGTEFTLTINSLQPDDFATYYCQQYNSFWTFGQGTKVEIK	2.39
CL-513780 (antibody, V domains shown, peptides N-terminally acetylated and C-terminally amidated) VH: QVQLVESGGGVVQPGRSLRLSCTASGFIFSNYGMYWVRQAPGKGLDWVALIWYDGSNKYYVGSVKGRFTISRDNSKNTLYLQMNSLRAEDTAVYYCARAGKYSGSGSYLDSWGQGTLVTVSS VL: DIQMTPSPSILSASVGDRVTITCRASQNISSWLAWYQQKPGKAPKLLIYKASSLESGVPSRFSGSGSGTEFTLTISSLQPDDFATYFCQQYYSYWTFGQGTKVEIK	2.48
CL-512564 (antibody, V domains shown, peptides N-terminally acetylated and C-terminally amidated) VH: QVQLVESGGGVVQPGRSLRLSCAASGFTFSNSGMHWVRQAPGKGLEWVAIIWYDGSHKFYADSVKGRFTISRDNSKNTLYLQMNSLRIEDTAMYYCVRSYNWNYPVRGDYKYGMDVWGQGTTVTVSS VL: DIQMTQSPSTLSASVGDRVTITCRASQSISSWLAWFQQKPGKAPNLLIYMASSLQSGVPSRFSGSGSGTEFTLTISSLQPDDFATYYCQQFNTYWTFGQGTKVEIK	2.14
CL-442127 (antibody, V domains shown, peptides N-terminally acetylated and C-terminally amidated) VH: QAQLVESGGGVVQPGKSLRLSCAASRFTFRNYGMHWVRQGPVKGLEWVALIWHDGSNKFYSDSVRDRFTISRDNSKNKLFLQMNSLTADDTALYYCVRSNYDGSGTYGWFGPWGQGTLVTVSS VL: EIVLTQSPGTLSLSPGERATLSCRASQSVISNYLAWYQQKPGQAPRLLIYGASTRDIGIPDRFSGSGSGTDFTLTISRLEPEDFAVYFCHQYGSSFTFGPGTKVDFK	2.3
CL-512206 (antibody, V domains shown, peptides N-terminally acetylated and C-terminally amidated) VH: QVQLVESGGGVVQPGRSLRLSCAASGFTFSHYGMHWVRQAPGKGLEWVAVIWYDGNNKFYADSVKGRFTISRDNSNNTLYLQMNSLRAEDTAVYHCVRERTGATSRGFDFWGQGTLVTVSS VL: QSVLTQPPSVSAAPGQKVTISCSGSDSNIEKYYVSWYQQLPGSAPKLLIYDNNKRPSGIPDRFSGSKSGTSATLGITGLQTGDEAVYYCGTWDSSLSTGVFGGGTKLTVL	1.86
CL-510484 (antibody, V domains shown, peptides N-terminally acetylated and C-terminally amidated) VH: QVQLVESGGGVVQPGRSLRLSCAASGFTFSNYGMNWVRQAPGKGLEWMAVIWYDGSNKYYGDSVKGRFTISRDNSKNTLYLQMISLRAEDTAVYFCAKSGEFYGSGSHFDYWGQGTLVTVSS VL: not shown	2.03
CL-440582 (antibody, V domains shown, peptides N-terminally acetylated and C-terminally amidated) VH: QVQLVESGGGVVQPGRSLRLSCAASGFTLNNYGIHWVRQAPGKGLEWLSLIWYDGSNKFYADSVKGRFTVSRDNSQNTVSLHMSSLSVDDTAVYYCARPGIGVPGDKYTMDVWGQGTTVTVSS VL: DIQMTQSPSTLSASVGDRVTITCRASQTISAWLAWYQQKLGKAPKILIYKASILESGVPSRFSGSGSGTEFTLTINSLQPDDFATYYCQQYNYDWTFGQGTKVEIN	2.6
